According to the domain aggregation screens of Martell et al. (2025):

Assay: soluble fraction after stress (log2 fold change); higher = more stays soluble; pooled small domains, quantitative proteomics
Conditions: stress: 75 degC
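Further: 20 min heating vs room temperature control held 20 min.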

| Sequence | soluble fraction (log2) |
| --- | --- |
| HMGDVKLNAIYNFLKEFSALNGFPPSVREIGAKFGIKSTSTVHYYLEKLKQSGVIQQEENKKRAVVIN | -1.32 |
| HMGDWEDFWEKEARRRKLSLDYQVVRSLSRWSREYDWGEEDVEQFLSQFPEGETVKMEDVELYFE | -1.18 |
| HMGDYDHYVVKVEDTLLNWLVTNVTTMSRNKLKDILAGQGIKVNGKITTKYDYPLTPGMKIAISKTKR | -1.41 |
| HMGEAIPVPDIRHKSQADAERLLQDQGLAMMVTDTGYVKTLPANYILEQIPVAGEKVKSGHVVYVIINSG | -0.103 |
| HMGEGIRIDSTAVVQVGEKMYAYLGGDGFSKEFWTNLPASGELAVTLKFEPIPMDAESLDFYEMPA | 0.307 |
| HMGEILYSGVLKGGDGPEATKLALEKFLGEANTQVAGRIGVQPETQVIWLSREAVDSAASTLSQHKGNMYV | -0.247 |
| HMGELDFYEEMRDDYLTGKIWNVGEIVEAKGMIGEIVRKGTNYISFVTDDNKVHKAWLHEIKL | -0.641 |
| HMGELRAPLPGVIVSIPVKEGDEVKAGQAILIIEAMKMESEISSPIDAKVAKIVVKERVLVQEGDILIILE | -1.33 |
| HMGEMTDFETLRDMYLTGQIWNIDDLIEANGVEGRIVRRGTNYIAFNDRDGKVHKAWLHEVTINE | -0.434 |
| HMGENTIFSGVLGEGRLDSALAHALPQFSRARIQGLIAEDAVLIAGKATNDAASKKFAGQSFELSVPAPRP | 0.119 |
| HMGEPQAWNELIGNLLRQWEARQTGWTPARKREALDRVLGAADPAALYTRLQGLLKSWTQAMTDADA | -1.73 |
| HMGEQETILKGDVNRDGVVDVNDVTHLQIHISNDDKNPLIDVTNKAWFDAADMYGDGKLDILDATALQIYI | 0.196 |
| HMGERVDGVVKFFNGQKGFGFIQREDGGPDAFVHISAVERAGMAGLDEGQRVSFELELDRRGKQAAINLTP | 0.108 |
| HMGESYGPVRRGETLWSIAEKVKPAGVSTQKELAAIYAANPQAFIRGDINLLKAGAELRLPSPEAL | -0.0179 |
| HMGESYQIKDGELLVDIAQRVKPAGMTLRQTINALVAANPRAFRNGNPDLMYRGATLTIPDGDTLRRLAH | -0.0841 |
| HMGEVQALIPGLVSKLFVVEGESVKIGQKLIILEAMKMENEIASPINGTIKKIYIKSGDKIDKGSIIMEIT | -3.41 |
| HMGEVVSAPMPGTILSIKVSQGQTVKRGQVLLILEAMKMENEIVAPRDGVVVQISTTQGASVETGAPLVVL | -1.1 |
| HMGEVYPSDIVEKMKQANLHILEGTLYPLLTRLKNAGLLNYRWVESVTGPPRKYFVMTEEGKAAF | 0.13 |
| HMGEWHQMLRSWGETELKNGRQNILDEAVPAFERAMIETALAHTSGRKKDAALLLGWGRNTLTRKLQEHSI | -0.169 |
| HMGEYGVLWYLLTKKEAVSAGELKEKLHVVPGRMTDILTALEKKGLIIRQKNKTDKRVVDVVLTKEGEKEA | -0.731 |
| HMGFAEFWLAYPKKVGKGEAERKWKTLKPDAGAVLSAVKRQSASEQWRKDGGRYIPNPATWLHQRRWE | 0.0452 |
| HMGFALLIAIERTGNTTYFVKLTLIKKGSDSDVLKDSFSVSQGDLVGTATYDSVIANRIREKTAAMWQKAT | -2.76 |
| HMGFDTSMNKYTIDDLLKLLELGSNPSQAEIVNKITNFNTIFVDNSGVIQFLNNIQDKLLDNFK | -0.734 |

| Sequence | soluble fraction (log2) |
| --- | --- |
| HMGFDTVVEKVLGLITSRPMTSRDIQMTLGRSREHTSRLMNRLYKEGLVDRNTSSKPFSYIITEKGREKI | -0.429 |
| HMGFPAPFDGKAVAELRRRLGLTRRGLAEELSVSPSTVDKWEQGDVALRSPALTILKILWHQGLKALPP | -1.78 |
| HMGFSDDEHNALADADLKKALEVTTNKSETQYNIAKLIYSYIISLGDKKPYGDWSYDKALSIIHDA | -0.0187 |
| HMGGAVQIAEQIAARIKDGALRPGELLPPVRQLAAELEVNPNTVASAYARLRDAGLVATRGRAGTVVLEPP | -0.421 |
| HMGGAYATVKLSSSSSQLNVRASASTASRVVARLSHGFRVEVLGVSGDWVKIRALGVEGYVARAYLALEGE | -3.07 |
| HMGGEAEVLQSIDEGREVEVRSVAADGSAEVIYRGARWRARAAVGSLAAGRWTIGRVDGTELVLEK | -0.0609 |
| HMGGEEKALLFGDVDIREAGEITQRLEQAEIPYELRGDGSSIFVPRSRVMEARMMISADGLL | -0.0934 |
| HMGGEKLPAPVAGTLLRYSVAEGARVSEGQTVIILESMKMELEINTPKAGVIHFLAAVGAQVAEGDTLAEI | -3.46 |
| HMGGGTPEERLATLAAIAERQEMLLERLGPNNPLVSLGQYSRTLSRMVQLAGFKDASQYFNELPLDFQMPE | -0.408 |
| HMGGHLAYGFSRRFGLLIDEQQGEPVIIARPDYSPVHYAEARRIVGQPAALRVVDEQAFNQLLQSQQESGA | -0.512 |
| HMGGLENNLKQARNRVGLTQSELARQAGISRQAYSSLESGAANPSTEVALRLAQALSERVESLFYLPE | -0.117 |
| HMGGNVYAYRLTASVKSGEQIPANKIEKVKMLSSDLPTNYVPDTVNVTAYKSKLDLQAGTILSTSLLYEN | -0.591 |
| HMGGPTARQMEVLSLIAQGLPNKRIADELGIAERTVKLHITALLDSLGARNRTHLLVVARERGM | -2.16 |
| HMGGQKTREAIFDLIMTNSKITSAQIAEILGIHRSGVARHLKKLQEEGLIKREGPDNGGQWIVIK | -0.473 |
| HMGGQYQVRPGETLNQIAARVRPSNMSLSETQKAIIQANPDIFKNGNPNLIFAGDILRIPTGNQI | 0.466 |
| HMGGTTLIAKQATVTGDIQFSSNLDIEGRVVGAISVEPGKEAMLHVVEGGSVEGEIRVPSAVINGKVTGDI | 0.0791 |
| HMGGVEWLTHPIGPRDSLQVLARAGLEARPTSDGDYEIYGQERWPQRDQARLMGWLRRFGQWVWQALYDK | -0.569 |
| HMGHEALSSKLDEIQGVGKEKRSLLLDHFKTFERIKNASMEELEAVPSLGKNTAKAVFRFFHS | -0.0805 |
| HMGHLTWTVTGIGHERRARTVAEQMSSVFGVLEARASSAGTVYLEFEREKIDEGGLEASLKRMGVTRVV | -2.02 |
| HMGIAFDYDAGRFDQVPPNLVEKWQQAYPAVDVLSELRRMEAWASANPVNRKSNWQRFIVNWLTRAQDRAG | -0.859 |
| HMGIAKYRQVTEWIQNRIATGELNRGDQIESENDISRTFGISRQTVRHALGLLEQQGILTRIQGRGTFVRD | -1.45 |
| HMGIFDIIQEINRQGVTVLLIEQNANMALKIADVGYVLETGRISLTGSGRELLANEAVKKAYL | -1.29 |
| HMGIKYTNQRVEILNFLKDNLSHPTVDDVYEGVKKKLTRISKATVYQNLKFLASKGLIQEVNIKGVSRFEP | -1.98 |

| Sequence | soluble fraction (log2) |
| --- | --- |
| HMGIRQGKVTSTFVNVRSGASTANAKVGELHKGDVVSLIEKVANFWRIGPGQFVSADYIQVLAS | -2.07 |
| HMGIRYQLADDVTDEQITAMTGKKAKIAAAIKAAGSAVSKMNVAGEMGYDKQNPINKDFMELVDAGIIVPS | -0.0507 |
| HMGISEKVINIIETYTMIARKKYPSVKSLAEHFNVSERTVHRYLEIIKMIDVVDYDREKKGYFFPYGDR | -3.08 |
| HMGISSESIKTFIREIVENEDPKAPLSDQTMVELLAERGIDISRRTVAKYRDEMNLPSSSKRKR | 0.87 |
| HMGKAMIDWEREQSILRILLRQKALTTEQAREVYQDGMREDLSALEMGVQRGYFTHEQLREATGGE | -0.278 |
| HMGKASNEVYEVISSKIRTGEWAPGYKLPSEPTLAEEFGVSRATVREALQELISRGRIKREQGRGTYVLH | -0.0316 |
| HMGKAVTLEEARAIIQAKVPGASPDMIQIWEEHGDGRGRYEGELSYNNMKYEFEMDPKTGIIFDWNA | -0.0538 |
| HMGKEDISQINKLYQNQILDYETYIDTLNSFNIDTKSKDFKNLLDLFIKKSISFETFNKGIINIHNKS | 0.328 |
| HMGKFMVQVGAFSRINGAEITRTKYDNLGTHKAIIKNLDGMNRVFLTGFLSEDEARDFIASSNLKGAFIIR | -2.13 |
| HMGKGVDKIMKMADDYSYGKIAGKTVDVMTAKLFQAAYNKAPQKAKDKVDKMNEKQLYIFMMNLWKRF | -0.768 |
| HMGKIILLFSDDDGVFDTALYRVRNYDGHRFAQSLGNAEMKWRHSEDEYFDFVLTSLREDGYDIEEIE | -1.18 |
| HMGKIINMSKVKQVLRLHTQGVSNRRIALDLGLYKGTVNSYIRKIKDHGYDIAEVLKLDDPVLESKLFA | -0.335 |
| HMGKKGPELNDNEKIIFNIISKENSMNLDDLKNRTELSNKQWDKAIKGLRSHELVNIEKIDDQLLIHL | 0.0386 |
| HMGKKQLVVDLQSIITDVPAALKSYGLEIGQDGKSLIYTYDTKGERTGITTLLNDLQKAGLQMTDMKTQQ | -0.0104 |
| HMGKPTPASQVATRWLAGDLPETLPVAGPAPSFETLARSVSTDFHPRAVLQELLRLGVAEEADGRVRLLK | -0.212 |
| HMGKQPLYEQLVDLLRDRIENDMETGELLPSERKLAHHFGLSRTTVRLAMDRLETLGLITRVHGKDTFVAE | -1.52 |
| HMGKREKTKVANRQAILVAARAVFAELGYEAATVRDIIRGTDLASGTFYNYFKSKEEVFDALADDGA | -1.73 |
| HMGKSETALELIKRGHRLIADDAVEITRIGSTLSGTAPELIRNYLEVRGVGVIDVEKLFGVGAVQDSTQI | 0.0405 |
| HMGKSPLDALSAREKEVLTYITRGVSINDIAAVLYLSPKTVSTHKTNLMQKLGIENNADLILFGVNHGLND | -1.51 |
| HMGLIAPMPGQIRSVAVSVGDVVKKGQTLLTMEAMKMEIRIQALKDGRVTALHAAQGQTVEGEQILIEVE | -2.32 |
| HMGLLEMPSERERQVLVLIAEGLSNKEIAARLYLTEGTVKNHAHSLYAKLNVTTRTLAIARARQLGI | -1.37 |
| HMGLLLSQLDKDYQRYIDLADSTFRDNQLAVSRGWYNRALGVKAAEKYPKDQIAEIEKKIAERM | -0.598 |
| HMGLNEGLNEGQQKVIQHIQENEGIKVKEISLKLNMPIDTVDRHIRVLKNLNLIERRGSRKTGGYFISN | -0.461 |
